Test results published in patent US20230212319A1, “NOVEL ANTIGEN BINDING DOMAINS AND SYNTHETIC ANTIGEN RECEPTORS INCORPORATING THE SAME” (University of Southern California, priority 2020, published 2023).
Residue numbers refer to the chain shown, from its start.

B1: 22151 (protein)
chain: MALPVTALLLPLALLLHAARPMLPAPKNLVVSRITEDSARLSWTAPDAAFDSFPIRYIETLIWGEAIWLDVPGSERSYDLTGLKPGTEYAVVITGVKGGRFSSPLVASFTTGTGGGGSGGGGSGGGGSEFSYVLTQPPSVSVAPGQTARITCGGNNIGGKSVHWYQQPPGQAPVVVVYDDSDRPSGIPERFSGSNSGNTATLTISRVEAGDEAVYYCQVWDSSSDHVVFGGGTKLTVLLEDLKNVFPPEVAVFEPSEAEISHTQKATLVCLATGFYPDHVELSWWVNGKEVHSGVCTDPQPLKEQPALNDSRYCLSSRLRVSATFWQNPRNHFRCQVQFYGLSENDEWTQDRAKPVTQIVSAEAWGRADCGFTSESYQQGVLSATILYEILLGKATLYAVLVSALVLMAMVKRKDSRGRAKRSGSGATNFSLLKQAGDVEENPGPTSMDWIWRILFLVGAATGAHSFEQLQLQESGPGLVKPSETLSLTCTVSGGSISSSSYFWGWIRQPPGKGLEWIGSIYYSGITYYNPSLKSRVTISVDTSKNQFSLKLSSVTAADTAVYYCARHDGAVAGLFDYWGQGTLVTVSSATRIQNPDPAVYQLRDSKSSDKSVCLFTDFDSQTNVSQSKDSDVYITDKCVLDMRSMDFKSNSAVAWSNKSDFACANAFNNSIIPEDTFFPSPESSCDVKLVEKSFETDTNLNFQNLSVIGFRILLLKVAGFNLLMTLRLWSSRAKRSGSGVKQTLNFDLLKLAGDVESNPGPSRGHMTEYKPTVRLATRDDVPRAVRTLAAAFADYPATRHTVDPDRHIERVTELQELFLTRVGLDIGKVWVADDGAAVAVWTTPESVEAGAVFAEIGPRMAELSGSRLAAQQQMEGLLAPHRPKEPAWFLATVGVSPDHQGKGLGSAVVLPGVEAAERAGVPAFLETSAPRNLPFYERLGFTVTADVEVPEGPRTWCMTRKPGA
B2: 10384 (protein)
chain: MALPVTALLLPLALLLHAARPDIQMTQSPSSLSASVGDRVTITCKSSQSVLYSSNQKNYLAWFQQKPGKAPKLLIYWASTRESGVPSRFSGSGSGTDFTLTISSLQPEDFATYFCHQYLSSYTFGQGTKVEIKRLEDLKNVFPPEVAVFEPSEAEISHTQKATLVCLATGFYPDHVELSWWVNGKEVHSGVCTDPQPLKEQPALNDSRYCLSSRLRVSATFWQNPRNHFRCQVQFYGLSENDEWTQDRAKPVTQIVSAEAWGRADCGFTSESYQQGVLSATILYEILLGKATLYAVLVSALVLMAMVKRKDSRGRAKRSGSGATNFSLLKQAGDVEENPGPTSMDWIWRILFLVGAATGAHSFEEVQLVESGGGLVQPGGSLRLSCAASGFTFTTYWMHWVRQAPGKGLEWVGYIRPSTGYTEYNQKFKDRFTISADTSKNTAYLQMNSLRAEDTAVYYCARSRWLLDYWGQGTLVTVSTRIQNPDPAVYQLRDSKSSDKSVCLFTDFDSQTNVSQSKDSDVYITDKCVLDMRSMDFKSNSAVAWSNKSDFACANAFNNSIIPEDTFFPSPESSCDVKLVEKSFETDTNLNFQNLSVIGFRILLLKVAGFNLLMTLRLWSS
modifications: Synthetic Polynucloetide
B3: 10380 (protein)
chain: MALPVTALLLPLALLLHAARPEVQLVESGGGLVQPGGSLRLSCAASGFTFTTYWMHWVRQAPGKGLEWVGYIRPSTGYTEYNQKFKDRFTISADTSKNTAYLQMNSLRAEDTAVYYCARSRWLLDYWGQGTLVTVSGGGGSGGGGSGGGGSDIQMTQSPSSLSASVGDRVTITCKSSQSVLYSSNQKNYLAWFQQKPGKAPKLLIYWASTRESGVPSRFSGSGSGTDFTLTISSLQPEDFATYFCHQYLSSYTFGQGTKVEIKRTREQKLISEEDLAKPTTTPAPRPPTPAPTIASQPLSLRPEACRPAAGGAVHTRGLDFACDIYIWAPLAGTCGVLLLSLVITLYCKRGRKKLLYIFKQPFMRPVQTTQEEDGCSCRFPEEEEGGCELRVKFSRSADAPAYQQGQNQLYNELNLGRREEYDVLDKRRGRDPEMGGKPRRKNPQEGLYNELQKDKMAEAYSEIGMKGERRRGKGHDGLYQGLSTATKDTYDALHMQALPPR
modifications: Synthetic Polynucloetide
B4: 10522 (protein)
chain: MALPVTALLLPLALLLHAARPDIQMTQSPSSLSASVGDRVTITCRASQDISNYLNWYQQKPGKAPKLLIYYTSRLHSGVPSRFSGSGSGTDFTLTISSLQPEDFATYYCQQGNTLPYTFGQGTKVEIKRLEDLKNVFPPEVAVFEPSEAEISHTQKATLVCLATGFYPDHVELSWWVNGKEVHSGVCTDPQPLKEQPALNDSRYCLSSRLRVSATFWQNPRNHFRCQVQFYGLSENDEWTQDRAKPVTQIVSAEAWGRADCGFTSESYQQGVLSATILYEILLGKATLYAVLVSALVLMAMVKRKDSRGRAKRSGSGATNFSLLKQAGDVEENPGPTSMDWIWRILFLVGAATGAHSFEEVQLVESGGGLVQPGGSLRLSCAASGYTFSDYFMSWVRQAPGKGLEWVATISNGGTYTYYPDSVKGRFTISRDNSKNTLYLQMNSLRAEDTAVYYCARFDGYIFDYWGQGTLVTVSSTRIQNPDPAVYQLRDSKSSDKSVCLFTDFDSQTNVSQSKDSDVYITDKCVLDMRSMDFKSNSAVAWSNKSDFACANAFNNSIIPEDTFFPSPESSCDVKLVEKSFETDTNLNFQNLSVIGFRILLLKVAGFNLLMTLRLWSS
modifications: Synthetic Polynucloetide
B5: 10660 (protein)
chain: B4 chain with Y117W, Y386F
modifications: Synthetic Polynucloetide
B6: 10591 (protein)
chain: B4 chain with N52S, Y386F
modifications: Synthetic Polynucloetide
B7: 10315 (protein)
chain: MALPVTALLLPLALLLHAARPDIQMTQSPSSLSASVGDRVTITCKSSQSLLYSSNQKNYLAWFQQKPGKAPKLLIYWASTRESGVPSRFSGSGSGTDFTLTISSLQPEDFATYFCHQYLSSYTFGQGTKVEIKRLEDLKNVFPPEVAVFEPSEAEISHTQKATLVCLATGFYPDHVELSWWVNGKEVHSGVCTDPQPLKEQPALNDSRYCLSSRLRVSATFWQNPRNHFRCQVQFYGLSENDEWTQDRAKPVTQIVSAEAWGRADCGFTSESYQQGVLSATILYEILLGKATLYAVLVSALVLMAMVKRKDSRGRAKRSGSGATNFSLLKQAGDVEENPGPTSMDWIWRILFLVGAATGAHSFEEVQLVESGGGLVQPGGSLRLSCAASGYTFTSYWLHWVRQAPGKGLEWVGYIRPSTGYTEYNQKFKDRFTISADTSKNTAYLQMNSLRAEDTAVYYCARSRWLLDYWGQGTLVTVSSTRIQNPDPAVYQLRDSKSSDKSVCLFTDFDSQTNVSQSKDSDVYITDKCVLDMRSMDFKSNSAVAWSNKSDFACANAFNNSIIPEDTFFPSPESSCDVKLVEKSFETDTNLNFQNLSVIGFRILLLKVAGFNLLMTLRLWSS
modifications: Synthetic Polynucloetide
B8: 10311 (protein)
chain: MALPVTALLLPLALLLHAARPEVQLVESGGGLVQPGGSLRLSCAASGYTFTSYWLHWVRQAPGKGLEWVGYIRPSTGYTEYNQKFKDRFTISADTSKNTAYLQMNSLRAEDTAVYYCARSRWLLDYWGQGTLVTVSSGGGGSGGGGSGGGGSDIQMTQSPSSLSASVGDRVTITCKSSQSLLYSSNQKNYLAWFQQKPGKAPKLLIYWASTRESGVPSRFSGSGSGTDFTLTISSLQPEDFATYFCHQYLSSYTFGQGTKVEIKRTREQKLISEEDLAKPTTTPAPRPPTPAPTIASQPLSLRPEACRPAAGGAVHTRGLDFACDIYIWAPLAGTCGVLLLSLVITLYCKRGRKKLLYIFKQPFMRPVQTTQEEDGCSCRFPEEEEGGCELRVKFSRSADAPAYQQGQNQLYNELNLGRREEYDVLDKRRGRDPEMGGKPRRKNPQEGLYNELQKDKMAEAYSEIGMKGERRRGKGHDGLYQGLSTATKDTYDALHMQALPPR
modifications: Synthetic Polynucloetide
B9: 10453 (protein)
chain: MALPVTALLLPLALLLHAARPEVQLVESGGGLVQPGGSLRLSCAASGYTFTTYWMHWVRQAPGKGLEWVGYIRPSTGYTEYNQKFKDRFTISADTSKNTAYLQMNSLRAEDTAVYYCARSRWLLDYWGQGTLVTVSLEDLKNVFPPEVAVFEPSEAEISHTQKATLVCLATGFYPDHVELSWWVNGKEVHSGVCTDPQPLKEQPALNDSRYCLSSRLRVSATFWQNPRNHFRCQVQFYGLSENDEWTQDRAKPVTQIVSAEAWGRADCGFTSESYQQGVLSATILYEILLGKATLYAVLVSALVLMAMVKRKDSRGRAKRSGSGATNFSLLKQAGDVEENPGPTSMDWIWRILFLVGAATGAHSFEDIQMTQSPSSLSASVGDRVTITCKSSQSLLYSSNQKNYLAWFQQKPGKAPKLLIYWASTRESGVPSRFSGSGSGTDFTLTISSLQPEDFATYFCHQYLSSYTFGQGTKVEIKRTRIQNPDPAVYQLRDSKSSDKSVCLFTDFDSQTNVSQSKDSDVYITDKCVLDMRSMDFKSNSAVAWSNKSDFACANAFNNSIIPEDTFFPSPESSCDVKLVEKSFETDTNLNFQNLSVIGFRILLLKVAGFNLLMTLRLWSS
modifications: Synthetic Polynucloetide

Test system: L363 cells
Assay: JNG assay, co-culture with L363 cells
Format: cell-based
Conditions: co-culture with L363
Summary of the method: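 Jurkat-NFAT-GFP (JNG) cells stably expressing SAR constructs via lentiviral transduction and puromycin/blasticidin selection were cocultured with target cells at E:T ~1:2 for ~4–18 h. NFAT-driven GFP was measured by FACS versus parental JNG cells; scores +/- to 5+ denote ~5–50% GFP-positive cells.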

| Molecule | NFAT-GFP ASSAY: L363 |
| --- | --- |
| B1 | 2+ (refer to approximately 5%, 10%, 20%, 30%, 40% and 50% GFP positive cells) |

Test system: U266 cells
Assay: JNG NFAT-GFP induction on co-culture with U266
Format: cell-based
Conditions: not given

| Molecule | NFAT-GFP ASSAY: U266 |
| --- | --- |
| B1 | 4+ (refer to approximately 5%, 10%, 20%, 30%, 40% and 50% GFP positive cells) |

Test system: SKOV3-Luc cells
Assay: SKOV3 xenograft in NSG mice
Conditions: 1 × 10^6 SKOV3-Luc s.c., a week later 3 × 10^6 SAR-T i.v.

| Molecule | tumor inhibition / protection, SKOV3 xenograft |
| --- | --- |
| B2 | tumor inhibition |
| B3 | weak protection |
| B4 | tumor inhibition |
| B5 | tumor inhibition |
| B6 | tumor inhibition |
| B7 | tumor inhibition |
| B8 | weak protection |
| B9 | tumor inhibition |

Same assay, conditions: mouse, in vivo

| Molecule | survival, SKOV3 xenograft |
| --- | --- |
| B2 | improvement in survival |
| B4 | improvement in survival |
| B5 | improvement in survival |
| B6 | improvement in survival |
| B7 | improvement in survival |
| B9 | improvement in survival |
